These results are taken from US20220025056A1 (INNATE PHARMA, published 2022).

To fix the notation:
B1: 2H12 (antibody, human IgG1, V domains shown)
VH: EVKLQQSGPDLVKPGASVKISCKASGYSFTNFYIHWVKQRPGQGLEWIGWIFPGNGETNYSEKFKGKATLTADTSSSTAYMQFNSLTYEDSAVYFCARTWNYDARWGYWGQGTTLTVSS
VL: DILLTQSPASLAVSLGQRATISCRASDGIDSYGISFMHWYQQKPGQPPTLLIYRASTLESGIPARFSGSGSRTDFTLTINPVEADDVATYYCQQTNEAPFTFGSGTKLELK
B2: 1A10D (antibody, human IgG1, V domains shown)
VH: QVQLKQSGPELVKPGASVKISCKASGYSFTNYYIHWVKQRPGQGLEWIGWIFPGSGETNFNEKFKGKATLTADTSSSTAYMQFSSLTSEDSAVYFCARTWNYDARWGYWGQGTTVTVSS
VL: B1 VL with D1E, L3V, D27E, G28S, T49K, T57N, T95S, A98D, L110I
B3: 2A9 (antibody, human IgG1, V domains shown)
VH: B2 VH with Q1E, Q3K, K5Q, F60Y, G66V, T71S, S77T, F83L, V115L
VL: DVVVTQTPASLAVSLGQRATISCRASESIDSYGISFMHWYQQKPGQPPKLLIYRASNLESGIPARFSGSGSRTDFTLTINPVEADDVATYYCQQSNEDPFTFGSGTKLEIK
B4: 2C8 (antibody, human IgG1, V domains shown)
VH: B2 VH with Q1E, H35Q, S55N, F60Y, F83L, T114S
VL: B3 VL with V2I, V3L, V4L, T7S, A12T, S26N, E59D
B5: 5D9 (antibody, human IgG1, V domains shown)
VH: B2 VH with Q6E, P53L, F60Y, K67E, T69I, S77T, F83L, T99S, V115L
VL: B3 VL with D1E, V2I, V4L, T7S, M37I, D85E
B6: 3E9B (antibody, human IgG1, V domains shown)
VH: B2 VH with Q1E, K5Q, Q6E, A24T, F60Y, T71S, S77T, F83L
VL: B3 VL with D1E, V2I, V3L, V4L, T7S, S28T
B7: 3E7A (antibody, human IgG1, V domains shown)
VH: B2 VH
VL: B1 VL with L4M, D27E, T57N, A98D, L110I
B8: 3E7B (antibody, human IgG1, V domains shown)
VH: B2 VH
VL: B1 VL with D1E, L3Q, L4M, D27E, T57N, E59V, A98D, L110I
B9: 2A8A (antibody, human IgG1, V domains shown)
VH: B2 VH with K5Q, Y32F, K38R, E46D, N59K, G66V, F83L, S84N, T99S, T114S
VL: B3 VL with D1Q, V2I, V4L, T7S, M37L, T73P
B10: 2D8 (antibody, human IgG1, V domains shown)
VH: B2 VH with Q1E, K5Q, A24S, Y32F, E46D, G66V, T69A, S77N, F83L, T99S
VL: B3 VL with V2A, V4M, I29V, N57I, T73P, T76S
B11: 6C6 (antibody, human IgG1, V domains shown)
VH: B2 VH with Q1E, K5Q, Y32F, E46D, F60Y, K63R, A72S, F83L, T99S, V115L
VL: B3 VL with D1Q, V2I, V4L, T73P

Substitutions are numbered along the chain they refer to.

The first assay deals with T1, human ILT6 (LILRA3) on CHO cells (human, UniProt Q8N6C8 24-434).
T1 construct: also called CHO ILT6 cell line; human ILT-6 polypeptide
T1 sequence (Q8N6C8 other isoform, or with tags, fused parts or gaps): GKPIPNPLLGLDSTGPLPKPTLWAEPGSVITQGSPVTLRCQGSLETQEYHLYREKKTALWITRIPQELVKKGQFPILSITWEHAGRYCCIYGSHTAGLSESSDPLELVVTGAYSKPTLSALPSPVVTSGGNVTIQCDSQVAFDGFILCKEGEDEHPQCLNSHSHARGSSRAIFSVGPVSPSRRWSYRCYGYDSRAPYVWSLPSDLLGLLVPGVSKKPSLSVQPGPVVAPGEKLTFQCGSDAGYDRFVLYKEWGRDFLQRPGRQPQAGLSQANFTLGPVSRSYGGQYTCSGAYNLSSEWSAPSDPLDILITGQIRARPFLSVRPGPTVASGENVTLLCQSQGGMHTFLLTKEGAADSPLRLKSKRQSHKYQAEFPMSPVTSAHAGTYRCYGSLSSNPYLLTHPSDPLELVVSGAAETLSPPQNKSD
Put plainly: flow cytometry, CHO transfectants. A general note: In flow cytometry, cells or beads pass a laser one at a time.
B1: the binding result is “no binding”.

For the molecule B2, the binding result is given as “no binding”.

Consider B3, for which the binding result was “no binding”.

With B4, the binding result is recorded as “no binding”.

With B5, the binding result is “no binding”.

With B6, the binding result was “no binding”.

In the case of B7, the binding result is on record as “no binding”.

As for B8, the binding result is on record as “no binding”.

For the molecule B9, the binding result is given as “no binding”.

For the molecule B10, the binding result was “no binding”.

As to B11, the binding result was “no binding”.

In a further assay the target is T2, ILT2 mutant 2 (human, UniProt Q8NHL6 24-650).
T2 construct: transfected in HEK293T cells; also called M2
T2 sequence (Q8NHL6 other isoform, or with tags, fused parts or gaps mutant): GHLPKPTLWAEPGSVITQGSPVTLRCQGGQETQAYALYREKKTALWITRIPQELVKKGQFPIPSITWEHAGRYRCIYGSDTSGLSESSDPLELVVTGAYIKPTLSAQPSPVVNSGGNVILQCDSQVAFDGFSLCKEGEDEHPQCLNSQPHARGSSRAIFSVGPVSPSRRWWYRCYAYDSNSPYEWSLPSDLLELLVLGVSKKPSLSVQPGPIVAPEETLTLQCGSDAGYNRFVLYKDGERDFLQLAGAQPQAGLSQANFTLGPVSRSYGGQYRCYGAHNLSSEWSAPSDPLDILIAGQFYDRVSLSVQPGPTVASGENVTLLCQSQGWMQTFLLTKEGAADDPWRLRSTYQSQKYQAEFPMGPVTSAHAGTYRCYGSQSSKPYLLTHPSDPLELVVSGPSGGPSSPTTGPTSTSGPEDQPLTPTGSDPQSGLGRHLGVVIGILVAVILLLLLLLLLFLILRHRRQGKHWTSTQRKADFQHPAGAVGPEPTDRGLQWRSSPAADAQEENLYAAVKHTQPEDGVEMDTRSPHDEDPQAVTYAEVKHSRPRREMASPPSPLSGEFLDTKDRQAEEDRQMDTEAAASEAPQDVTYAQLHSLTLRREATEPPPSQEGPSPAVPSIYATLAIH
The experiment in a line: flow cytometry, ILT2 point mutants.
For the molecule B1, the binding result is on record as “no binding”.

B2: the binding result is reported as “no binding”.

B3: the binding result was “no binding”.

For B4, the binding result is reported as “no binding”.

Turning to B5, the binding result was “no binding”.

In the case of B6, the binding result is given as “no binding”.

Consider B7, for which the binding result was “no binding”.

B8: the binding result was “no binding”.

In the case of B9, the binding result is given as “no binding”.

In the case of B10, the binding result is “no binding”.

With B11, the binding result is recorded as “no binding”.
